Settings in all cases: partners not purified
One assay concerns the target T1, HA-Halo-MRAP2 (human, UniProt Q96G30 1-205, CA-Sulfo646 dye on the Halo tag).
T1 construct: melanocortin receptor-2 accessory protein-2 (MRAP2), human; N-terminal signal peptide from rat mGluR2 in the construct; also called melanocortin receptor-2 accessory protein-2; source: HEK293, transfected, in lysate (LMNG-CHS); not shown: HA, N-terminal, kept; Halo, N-terminal, kept
T1 sequence (looked up): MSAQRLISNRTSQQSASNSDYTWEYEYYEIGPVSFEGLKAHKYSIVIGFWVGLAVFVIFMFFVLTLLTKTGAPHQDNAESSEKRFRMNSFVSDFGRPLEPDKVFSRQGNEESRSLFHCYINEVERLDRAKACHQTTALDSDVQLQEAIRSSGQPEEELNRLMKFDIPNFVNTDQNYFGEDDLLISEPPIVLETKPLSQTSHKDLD
Nature of the assay: single-molecule pull-down (SiMPull) with photobleaching step counting; two-color: HA-Halo protein (CA-Sulfo646) and FLAG-CLIP protein (BC-DY547) co-expressed in HEK293 (300 ng Halo and 600 ng CLIP plasmid), lysed in 0.5% LMNG/0.05% CHS, captured by biotinylated anti-HA antibody, co-localized spots analysed by TIRF; also reanalysed for monomeric against oligomeric GPCR.

In the next assay the target is T2, HA-Halo-GHSR (human, UniProt Q92847 1-366, CA-Sulfo646 dye on the Halo tag).
T2 construct: growth hormone secretagogue receptor-1a (GHSR), human; N-terminal signal peptide from rat mGluR2 precedes the HA tag in the construct (pRK5 vector); also called ss-HA-Halo-GHSR; growth hormone secretagogue receptor-1a; source: HEK293, transfected, in lysate (LMNG-CHS); not shown: HA, N-terminal, kept; Halo, N-terminal, kept
Described as above.

A further assay addresses T3, HA-Halo-MC4R (human, UniProt P32245 1-332, CA-Sulfo646 dye on the Halo tag).
T3 construct: melanocortin receptor-4 (MC4R), human; N-terminal signal peptide from rat mGluR2 in the construct; also called melanocortin receptor 4; source: HEK293, transfected, in lysate (LMNG-CHS); not shown: HA, N-terminal, kept; Halo, N-terminal, kept
Described as above.

For a further assay, the target named is T4, GHSR-LgC (UniProt Q92847 1-366).
T4 construct: GHSR cloned into the LgBiT-C plasmid (Promega); also called GHSR with LgBiT at the C-terminus; source: HEK293, transfected, in cells; not shown: LgBiT, C-terminal, kept
Nature of the assay: split reporter (BiFC, NanoBiT); HEK293 cells transfected with 100 ng GHSR-LgC and MRAP2-SmC, 48 h, Nano-Glo substrate, 37°C; normalised to cells with LgC-empty and SmC-empty.

The results in this text go back to article doi:10.1101/2025.09.26.678709, “MRAP2 potentiates GPCR signaling by conserved mechanisms that are disrupted by obesity-associated genetic variants” (bioRxiv, 2025).

The term stoichiometry N denotes a count of units in the complex or per binding partner.

T3 sequence (P32245 whole entry): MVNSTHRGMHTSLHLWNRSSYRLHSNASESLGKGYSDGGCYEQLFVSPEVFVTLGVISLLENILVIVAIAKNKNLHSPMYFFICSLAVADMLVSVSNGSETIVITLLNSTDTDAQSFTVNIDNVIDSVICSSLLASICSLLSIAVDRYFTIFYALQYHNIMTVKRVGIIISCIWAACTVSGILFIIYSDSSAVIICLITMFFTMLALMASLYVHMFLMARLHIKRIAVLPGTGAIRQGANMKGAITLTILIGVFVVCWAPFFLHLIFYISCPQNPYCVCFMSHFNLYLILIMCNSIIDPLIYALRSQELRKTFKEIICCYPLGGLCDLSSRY

B1: FLAG-CLIP-GHSR (receptor, human, UniProt Q92847 1-366, looked up)
chain: MWNATPSEEPGFNLTLADLDWDASPGNDSLGDELLQLFPAPLLAGVTATCVALFVVGIAGNLLTMLVVSRFRELRTTTNLYLSSMAFSDLLIFLCMPLDLVRLWQYRPWNFGDLLCKLFQFVSESCTYATVLTITALSVERYFAICFPLRAKVVVTKGRVKLVIFVIWAVAFCSAGPIFVLVGVEHENGTDPWDTNECRPTEFAVRSGLLTVMVWVSSIFFFLPVFCLTVLYSLIGRKLWRRRRGDAVVGASLRDQNHKQTVKMLAVVVFAFILCWLPFHVGRYLFSKSFEPGSLEIAQISQYCNLVSFVLFYLSAAINPILYNIMSKKYRVAVFRLLGFEPFSQRKLSTLKDESSRAWTESSINT
modifications: BC-DY547 dye on the CLIP tag
notes: growth hormone secretagogue receptor-1a (GHSR), human; N-terminal signal peptide from rat mGluR2 precedes the FLAG tag in the construct (pRK5 vector); also called ss-FLAG-CLIP-GHSR; source: HEK293, transfected, in lysate (LMNG-CHS); not shown: CLIP, N-terminal, kept
Regarding B1, in the assay with HA-Halo-MRAP2, the “percent of co-localized spots with 2-step bleaching for MRAP2” value was found to be 22% and the “stoichiometry N” value is 1 MRAP2 per GHSR.

B2: FLAG-CLIP-MRAP2 (natural protein, human, UniProt Q96G30 1-205, looked up)
chain: T1 sequence (looked up)
modifications: BC-DY547 dye on the CLIP tag
notes: melanocortin receptor-2 accessory protein-2 (MRAP2), human; N-terminal signal peptide from rat mGluR2 in the construct; source: HEK293, transfected, in lysate (LMNG-CHS); not shown: CLIP, N-terminal, kept
As to B2, the “percent of co-localized spots with 2-step bleaching for MRAP2” value in the assay with HA-Halo-GHSR stood at 27%; with HA-Halo-MC4R, 29%. For the same molecule, the “stoichiometry N” value came to 1 MRAP2 per GHSR with HA-Halo-GHSR and 1 MRAP2 per MC4R with HA-Halo-MC4R.

B3: MRAP2-SmC (natural protein, UniProt Q96G30 1-205, looked up)
chain: T1 sequence (looked up)
notes: MRAP2; printed as MRAP2-SmC in the results and SmC-MRAP2 in the methods; also called SmC-MRAP2; source: HEK293, transfected, in cells
Consider B3, for which the “fold luminescence over negative controls” value with GHSR-LgC stood at 400 fold.
